Results reported in patent publication US20220389118A1 (Chugai, published 2022).
Residue numbers refer to the chain shown, from its start.

T1: human FcγRIIa type R extracellular domain with C-terminal His tag (human, UniProt P12318 34-217)
T1 construct: extracellular domain; also called FcγRIIaR; FcγRIIa(R)
T1 sequence (looked up): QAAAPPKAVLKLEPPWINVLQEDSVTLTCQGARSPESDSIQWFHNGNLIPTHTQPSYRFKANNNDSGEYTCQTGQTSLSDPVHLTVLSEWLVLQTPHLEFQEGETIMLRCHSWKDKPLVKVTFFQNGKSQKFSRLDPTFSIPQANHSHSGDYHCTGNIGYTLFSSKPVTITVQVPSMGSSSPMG

T2: human FcγRIIa type H extracellular domain with C-terminal His tag (human, UniProt P12318 34-217)
T2 construct: extracellular domain; also called FcγRIIaH; FcγRIIa(H)
T2 sequence (looked up): T1 sequence (looked up) with R134H

T3: human FcγRIIb extracellular domain with C-terminal His tag (human, UniProt P31994 43-217)
T3 construct: extracellular domain
T3 sequence (looked up): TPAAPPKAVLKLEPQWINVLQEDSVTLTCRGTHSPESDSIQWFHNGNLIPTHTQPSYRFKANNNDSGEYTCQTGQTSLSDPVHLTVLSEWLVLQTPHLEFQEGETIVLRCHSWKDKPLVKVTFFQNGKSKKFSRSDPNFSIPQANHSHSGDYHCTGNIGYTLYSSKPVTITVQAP

T4: human FcγRIIb extracellular domain with C-terminal His tag (human, UniProt P31994 43-217)
T4 construct: extracellular domain; also called FcgRIIb
T4 sequence (looked up): T3 sequence (looked up)

B1: IL6R-BP511/IL6R-L (antibody, human IgG1, kappa)
heavy: QVQLQESGPGLVKPSETLSLTCAVSGHSISHDHAWSWVRQPPGEGLEWIGFISYSGITNYNPSLQGRVTISRDNSKNTLYLQMNSLRAEDTAVYYCARSLARTTAMDYWGEGTLVTVSSASTKGPSVFPLAPSSKSTSGGTAALGCLVKDYFPEPVTVSWNSGALTSGVHTFPAVLQSSGLYSLSSVVTVPSSSLGTQTYICNVNHKPSNTKVDKKVEPKSCDKTHTCPPCPAPELLGDDSVFLFPPKPKDTLMISRTPEVTCVVIDVAEEDGPVKFNWYVDGVEVHNAKTKPREEQDNSTYRVVSVLTVLHQDWLNGKEYKCKVSNKALPRPIEKTISKAKGQPREPQVYTLPPSRDELTKNQVSLTCLVKGFYPSDIAVEWESNGQPENNYKTTPPVLDSDGSFFLYSKLTVDKSRWQQGNVFSCSVMHEALHNHYTQESLSLSP
light: not shown
notes: copies: 2 + 2
B2: IL6R-BP497/IL6R-L (antibody, human IgG1, kappa)
heavy: B1 heavy with E235D, P274E, D298Y, A329G
light: not shown
notes: copies: 2 + 2
B3: IL6R-BP536/IL6R-L (antibody, human IgG1, kappa)
heavy: B1 heavy with E235D, A269S, P274E, A329G, P398M
light: not shown
notes: copies: 2 + 2
B4: IL6R-BP551/IL6R-L (antibody, human IgG1, kappa)
heavy: B1 heavy with A269S, P274D
light: not shown
notes: copies: 2 + 2
B5: IL6R-BP499/IL6R-L (antibody, human IgG1, kappa)
heavy: B1 heavy with E235D, P274E, P398L
light: not shown
notes: copies: 2 + 2
B6: IL6R-BP510/IL6R-L (antibody, human IgG1, kappa)
heavy: B1 heavy with D298Y
light: not shown
notes: copies: 2 + 2
B7: IL6R-BP498/IL6R-L (antibody, human IgG1, kappa)
heavy: B1 heavy with E235D, P274E, D298Y, P398L
light: not shown
notes: copies: 2 + 2
B8: IL6R-BP496/IL6R-L (antibody, human IgG1, kappa)
heavy: B1 heavy with E235D, P274E, R332A
light: not shown
notes: copies: 2 + 2
B9: IL6R-BP554/IL6R-L (antibody, human IgG1, kappa)
heavy: B1 heavy with P274D, D298Y
light: not shown
notes: copies: 2 + 2
B10: IL6R-BP550/IL6R-L (antibody, human IgG1, kappa)
heavy: B1 heavy with A269G, P274D
light: not shown
notes: copies: 2 + 2
B11: IL6R-BP503/IL6R-L (antibody, human IgG1, kappa)
heavy: B1 heavy with E235D, P274E, A329G, P398M
light: not shown
notes: copies: 2 + 2
B12: IL6R-BP539/IL6R-L (antibody, human IgG1, kappa)
heavy: B1 heavy with A269G
light: not shown
notes: copies: 2 + 2
B13: IL6R-BP487/IL6R-L (antibody, human IgG1, kappa)
heavy: B1 heavy with E235D, P274E, D298Y, P398M
light: not shown
notes: copies: 2 + 2
B14: IL6R-BP502/IL6R-L (antibody, human IgG1, kappa)
heavy: B1 heavy with E235D, P274E, A329G
light: not shown
notes: copies: 2 + 2
B15: IL6R-BP489/IL6R-L (antibody, human IgG1, kappa)
heavy: B1 heavy with E235D, P274E, P398M
light: not shown
notes: copies: 2 + 2
B16: IL6R-BP538/IL6R-L (antibody, human IgG1, kappa)
heavy: B1 heavy with A269S, P274E, D298Y
light: not shown
notes: copies: 2 + 2
B17: IL6R-BP540/IL6R-L (antibody, human IgG1, kappa)
heavy: B1 heavy with A269S
light: not shown
notes: copies: 2 + 2
B18: IL6R-BP491/IL6R-L (antibody, human IgG1, kappa)
heavy: B1 heavy with P274E
light: not shown
notes: also called IL6R-491/IL6R-L; copies: 2 + 2
B19: IL6R-BP533/IL6R-L (antibody, human IgG1, kappa)
heavy: B1 heavy with E235D, A269G, P274E, P398L
light: not shown
notes: copies: 2 + 2
B20: IL6R-BP438/IL6R-L (antibody, human IgG1, kappa)
heavy: B1 heavy with E235D, I266V, P274E, D298Y, I334T
light: not shown
notes: copies: 2 + 2
B21: IL6R-BP558/IL6R-L (antibody, human IgG1, kappa)
heavy: B1 heavy with A269G, P274D, D298Y
light: not shown
notes: copies: 2 + 2
B22: IL6R-BP912/IL6R-L (antibody, human IgG1, kappa)
heavy: B1 heavy with D239G, I266V, A269S, E270H, G273P, P274E, D298Y
light: not shown
notes: IgG1 type
B23: IL6R-BP136/IL6R-L (antibody, human IgG1, kappa)
heavy: B1 heavy with D239G, I266V, A269S, E270H, G273P, P274E, D298Y, K328A, R332A
light: not shown
notes: IgG1 type
B24: IL6R-BP142/IL6R-L (antibody, human IgG1, kappa)
heavy: B1 heavy with D239G, I266V, A269S, E270H, G273P, P274E, D298Y, K328N, R332A
light: not shown
notes: IgG1 type

biological target: T5, human FcγRIa extracellular domain with C-terminal His tag (human, UniProt P12314 16-292); assay: SPR (Biacore)
T5 construct: extracellular domain
T5 sequence (P12314 16-292): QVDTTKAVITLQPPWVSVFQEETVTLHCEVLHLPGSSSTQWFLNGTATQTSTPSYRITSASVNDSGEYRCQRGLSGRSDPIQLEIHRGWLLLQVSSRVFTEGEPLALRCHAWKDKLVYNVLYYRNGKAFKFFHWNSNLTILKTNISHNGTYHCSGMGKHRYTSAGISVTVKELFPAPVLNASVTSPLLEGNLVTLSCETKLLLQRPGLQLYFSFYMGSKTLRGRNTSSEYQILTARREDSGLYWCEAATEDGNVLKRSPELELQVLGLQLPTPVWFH

Binder | Kd [nM]
B1 | 6
B2 | 2.1
B3 | 8.9
B4 | 32
B5 | 1.2
B6 | 6
B7 | 1.3
B8 | 1.2
B9 | 8
B10 | 25
B11 | 1.2
B12 | 64
B13 | 1.2
B14 | 2.1
B15 | 1.3
B16 | 55
B17 | 96
B18 | 5.3
B19 | 7.7

biological target: T1, human FcγRIIa type R extracellular …; assay: SPR (Biacore)

Binder | Kd [nM]
B20 | 180
B1 | 180
B2 | 85
B21 | 330
B3 | 79
B4 | 250
B5 | 49
B7 | 51
B8 | 470
B10 | 340
B11 | 57
B12 | 330
B13 | 39
B14 | 110
B15 | 43
B16 | 200
B17 | 210
B18 | 120
B19 | 120

biological target: T2, human FcγRIIa type H extracellular …; assay: SPR (Biacore)

Binder | Kd [nM]
B20 | 1600
B1 | 4300
B2 | 960
B21 | 4900
B3 | 1300
B4 | 2800
B5 | 1000
B6 | 4000
B7 | 930
B8 | 3700
B9 | 2300
B10 | 5000
B11 | 860
B12 | 5600
B13 | 840
B14 | 1300
B15 | 870
B16 | 3000
B17 | 4600
B18 | 2200
B19 | 2600

biological target: T3, human FcγRIIb extracellular domain with …; assay: SPR (Biacore)

Binder | Kd [nM]
B1 | 3.5
B2 | 4.1
B21 | 9
B3 | 3
B4 | 6.4
B5 | 1.5
B6 | 3.8
B7 | 1.7
B8 | 18
B10 | 7.6
B11 | 1.7
B12 | 8.4
B13 | 1.2
B14 | 3.7
B15 | 1
B16 | 5.3
B17 | 5.7
B18 | 3
B19 | 4.1

biological target: T3, human FcγRIIb extracellular domain with …; assay: SPR (Biacore), ratio of KDs

Binder | KD(IIaH)/KD(IIb) | KD(IIaR)/KD(IIb)
B1 | 1240 | 50.6
B2 | 236 | 21
B3 | 438 | 26.6
B4 | 436 | 38.1
B5 | 685 | 33.8
B7 | 564 | 30.8
B8 | 201 | 25.5
B10 | 655 | 44.2
B11 | 503 | 33.2
B12 | 667 | 39
B13 | 730 | 33.8
B14 | 352 | 29.5
B15 | 870 | 42.8
B16 | 568 | 38.6
B17 | 803 | 36.6
B18 | 724 | 38.8
B19 | 634 | 29.3

biological target: T1, human FcγRIIa type R extracellular …; assay: SPR (Biacore), parent IL6R-B3/IL6R-L

Binder | KD(IIaR) parent/KD(IIaR) altered polypeptide
B1 | 6.3
B2 | 12.9
B3 | 13.9
B4 | 4.5
B5 | 22.3
B7 | 21.7
B8 | 2.3
B10 | 3.3
B11 | 19.4
B12 | 3.4
B13 | 28.3
B14 | 10.1
B15 | 25.7
B16 | 5.4
B17 | 5.2
B18 | 9.3
B19 | 9.2

biological target: T3, human FcγRIIb extracellular domain with …; assay: SPR (Biacore), parent IL6R-B3/IL6R-L

Binder | KD(IIb) parent/KD(IIb) altered polypeptide
B1 | 891
B2 | 764
B3 | 1040
B4 | 482
B5 | 2120
B7 | 1880
B8 | 168
B10 | 406
B11 | 1810
B12 | 369
B13 | 2700
B14 | 840
B15 | 3100
B16 | 587
B17 | 541
B18 | 1020
B19 | 756

biological target: T4, human FcγRIIb extracellular domain with …; assay: SPR (Biacore), antibody captured, FcγR as analyte

Binder | KD(IIb) of parent polypeptide/KD(IIb) of altered polypeptide [fold vs IL6R-B3/IL6R-L] | Kd [nM]
B22 | 2.1 | –
B23 | 3.9 | 800
B24 | 2.6 | –
